# Article PMC9500498 (Circulation research, 2021)
# Ends that are not written are not given here. * marks the point of attachment. Biotin = O=C1N[C@H]2[C@H](CS[C@H]2CCCCC(=O)*)N1; Ahx = NCCCCCC(=O)O
# Molecular target: calmodulin (CaM), recombinant (UniProt P0DP23 1-149)
# Test: SPR
binder,measurement,value
{Biotin-Ahx}-KKRKKAKKDYQPNYFLSIPI [biotin-ahx-AKAP18δ-N (79–98)],Kd,4.7 ± 0.7 µM
same,koff,0.00053 s⁻¹
same,kon,130 M⁻¹ s⁻¹
